Results published in article PMC10397247.

Experiments:
Experiment in all cases: two-hybrid library CCmax;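 note: natural log of median RNA to DNA barcode read ratio; higher means stronger binding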
APC8516-AA = target: T1, APC8516-AA; settings: mean of both orientations
T1 chain: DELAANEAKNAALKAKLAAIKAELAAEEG

APC7524-AA = target: T2, APC7524-AA; settings: mean of both orientations
T2 chain: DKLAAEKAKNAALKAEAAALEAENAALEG

APC9141-AA = target: T3, APC9141-AA; settings: mean of both orientations
T3 chain: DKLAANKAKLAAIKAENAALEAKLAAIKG

APC6088-AA = target: T4, APC6088-AA; settings: mean of both orientations
T4 chain: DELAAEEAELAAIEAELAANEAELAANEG

APC542-AA = target: T5, APC542-AA; settings: mean of both orientations
T5 chain: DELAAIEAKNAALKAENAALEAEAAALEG

APC5009-AA = target: T6, APC5009-AA; settings: mean of both orientations
T6 chain: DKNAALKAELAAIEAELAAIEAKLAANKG

APC8401-AA = target: T7, APC8401-AA; settings: mean of both orientations
T7 chain: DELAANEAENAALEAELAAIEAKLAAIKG

APC5531-AA = target: T8, APC5531-AA; settings: mean of both orientations
T8 chain: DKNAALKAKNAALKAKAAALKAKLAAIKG

APC9182-AA = target: T9, APC9182-AA; settings: mean of both orientations
T9 chain: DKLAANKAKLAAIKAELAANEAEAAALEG

APC9291-AA = target: T10, APC9291-AA; settings: mean of both orientations
T10 chain: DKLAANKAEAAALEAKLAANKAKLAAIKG

APC9806-AA = target: T11, APC9806-AA; settings: mean of both orientations
T11 chain: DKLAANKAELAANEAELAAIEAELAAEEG

APC4336-AA = target: T12, APC4336-AA
T12 chain: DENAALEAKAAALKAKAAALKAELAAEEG

4H2642-AA = target: T13, 4H2642-AA; settings: mean of both orientations
T13 chain: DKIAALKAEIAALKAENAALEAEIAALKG

4H429-AA = target: T14, 4H429-AA; settings: mean of both orientations
T14 chain: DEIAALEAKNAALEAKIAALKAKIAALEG

4H2729-AA = target: T15, 4H2729-AA; settings: mean of both orientations
T15 chain: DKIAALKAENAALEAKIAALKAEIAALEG

4H335-AA = target: T16, 4H335-AA; settings: mean of both orientations
T16 chain: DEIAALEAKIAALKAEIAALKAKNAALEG

4H2575-AA = target: T17, 4H2575-AA
T17 chain: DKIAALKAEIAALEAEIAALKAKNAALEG

4H3427-AA = target: T18, 4H3427-AA; settings: mean of both orientations
T18 chain: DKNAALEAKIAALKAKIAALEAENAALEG

4H605-AA = target: T19, 4H605-AA; settings: mean of both orientations
T19 chain: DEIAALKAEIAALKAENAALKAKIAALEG

4H794-AA = target: T20, 4H794-AA; settings: mean of both orientations
T20 chain: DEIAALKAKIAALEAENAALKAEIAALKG

4H3112-AA = target: T21, 4H3112-AA; settings: mean of both orientations
T21 chain: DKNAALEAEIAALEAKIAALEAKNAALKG

4H881-AA = target: T22, 4H881-AA
T22 chain: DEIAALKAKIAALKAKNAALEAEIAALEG

4H2944-AA = target: T23, 4H2944-AA; settings: mean of both orientations
T23 chain: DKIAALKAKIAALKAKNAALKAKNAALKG

4H780-AA = target: T24, 4H780-AA; settings: mean of both orientations
T24 chain: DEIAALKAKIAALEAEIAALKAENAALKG

4H342-AA = target: T25, 4H342-AA; settings: mean of both orientations
T25 chain: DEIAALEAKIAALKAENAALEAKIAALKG

4H993-AA = target: T26, 4H993-AA; settings: mean of both orientations
T26 chain: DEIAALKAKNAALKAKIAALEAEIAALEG

4H3921-AA = target: T27, 4H3921-AA; settings: mean of both orientations
T27 chain: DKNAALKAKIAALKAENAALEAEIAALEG

4H317-AA = target: T28, 4H317-AA; settings: mean of both orientations
T28 chain: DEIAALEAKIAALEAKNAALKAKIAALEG

4H566-AA = target: T29, 4H566-AA; settings: mean of both orientations
T29 chain: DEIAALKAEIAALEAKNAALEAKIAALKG

4H2754-AA = target: T30, 4H2754-AA; settings: mean of both orientations
T30 chain: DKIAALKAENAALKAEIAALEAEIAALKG

4H2617-AA = target: T31, 4H2617-AA; settings: mean of both orientations
T31 chain: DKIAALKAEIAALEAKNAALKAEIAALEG

4H906-AA = target: T32, 4H906-AA; settings: mean of both orientations
T32 chain: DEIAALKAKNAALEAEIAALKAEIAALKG

4H3844-AA = target: T33, 4H3844-AA; settings: mean of both orientations
T33 chain: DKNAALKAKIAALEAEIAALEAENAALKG

4H454-AA = target: T34, 4H454-AA; settings: mean of both orientations
T34 chain: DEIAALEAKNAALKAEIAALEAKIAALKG

4H3655-AA = target: T35, 4H3655-AA; settings: mean of both orientations
T35 chain: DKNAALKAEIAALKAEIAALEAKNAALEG

4H678-AA = target: T36, 4H678-AA; settings: mean of both orientations
T36 chain: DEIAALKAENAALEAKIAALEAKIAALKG

4H3627-AA = target: T37, 4H3627-AA; settings: mean of both orientations
T37 chain: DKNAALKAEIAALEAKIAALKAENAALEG

4H2837-AA = target: T38, 4H2837-AA; settings: mean of both orientations
T38 chain: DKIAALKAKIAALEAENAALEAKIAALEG

4H717-AA = target: T39, 4H717-AA; settings: mean of both orientations
T39 chain: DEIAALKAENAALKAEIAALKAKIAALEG

4H3343-AA = target: T40, 4H3343-AA; settings: mean of both orientations
T40 chain: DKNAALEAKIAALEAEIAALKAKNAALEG

4H2949-AA = target: T41, 4H2949-AA; settings: mean of both orientations
T41 chain: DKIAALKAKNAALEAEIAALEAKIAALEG

DENAALEAKAAALKAKAAALKAELAAEEG [APC4336-AA]
interaction score (APC8516-AA): -1.7 | interaction score (APC7524-AA): -1.86 | interaction score (APC9141-AA): -2.48 | interaction score (APC6088-AA): -1.93 | interaction score (APC542-AA): -2.08 | interaction score (APC5009-AA): 1.2 | interaction score (APC8401-AA): -1.59 | interaction score (APC5531-AA): -2.38 | interaction score (APC9182-AA): -1.89 | interaction score (APC9291-AA): -2.36 | interaction score (APC9806-AA): -1.53 | interaction score (APC4336-AA): -3.13

DKIAALKAEIAALEAEIAALKAKNAALEG [4H2575-AA]
interaction score (4H2642-AA): -1.2 | interaction score (4H429-AA): -0.196 | interaction score (4H2729-AA): 0.467 | interaction score (4H335-AA): 1.88 | interaction score (4H2575-AA): 1.9 | interaction score (4H3427-AA): 0.849 | interaction score (4H605-AA): -1.27 | interaction score (4H794-AA): -1.27 | interaction score (4H3112-AA): -0.383 | interaction score (4H881-AA): -0.902 | interaction score (4H2944-AA): -0.604 | interaction score (4H780-AA): 0.14 | interaction score (4H342-AA): 1.14 | interaction score (4H993-AA): -0.15 | interaction score (4H3921-AA): -1.45 | interaction score (4H317-AA): 0.149 | interaction score (4H566-AA): -1.21 | interaction score (4H2754-AA): -1.28 | interaction score (4H2617-AA): 0.75 | interaction score (4H906-AA): -1.56 | interaction score (4H3844-AA): -0.532 | interaction score (4H454-AA): 1.03 | interaction score (4H3655-AA): -0.814 | interaction score (4H678-AA): -0.968 | interaction score (4H3627-AA): 0.318 | interaction score (4H2837-AA): -1.05 | interaction score (4H717-AA): -1.25 | interaction score (4H3343-AA): -0.0872 | interaction score (4H2949-AA): -0.954
